# From US20250340608A1 (PROTAGONIST THERAPEUTICS, published 2025)
# Numbered stars: 1 amine (or outer) side, 2 acyl side, 3 side chain; on linkers, the order of the positions; unused ones are H or OH. Bridge positions count the residues as written; N and C are the ends. Square brackets hold non-standard residues; d marks the D form. Primed or numbered codes have the meaning given here. Side chains are listed from the residue outwards. Ends that are not written are not given here. * marks the point of attachment. Ida = iminodiacetic acid, O=C(CN(CC(=O)[*:3])[*:1])[*:2]; Dip = N[C@H](C(=O)O)C(c1ccccc1)c1ccccc1; Palmitoyl = CCCCCCCCCCCCCCCC(=O)*; β3hP = O=C(O)C[C@@H]1CCCN1; Isovaleryl = CC(C)CC(=O)*; PEG3′ = not defined here
# T1: human ferroportin (SLC40A1) fused in frame with GFP, stably expressed in HEK293 cells (human, UniProt Q9NP59 1-571)
# T1 sequence (looked up): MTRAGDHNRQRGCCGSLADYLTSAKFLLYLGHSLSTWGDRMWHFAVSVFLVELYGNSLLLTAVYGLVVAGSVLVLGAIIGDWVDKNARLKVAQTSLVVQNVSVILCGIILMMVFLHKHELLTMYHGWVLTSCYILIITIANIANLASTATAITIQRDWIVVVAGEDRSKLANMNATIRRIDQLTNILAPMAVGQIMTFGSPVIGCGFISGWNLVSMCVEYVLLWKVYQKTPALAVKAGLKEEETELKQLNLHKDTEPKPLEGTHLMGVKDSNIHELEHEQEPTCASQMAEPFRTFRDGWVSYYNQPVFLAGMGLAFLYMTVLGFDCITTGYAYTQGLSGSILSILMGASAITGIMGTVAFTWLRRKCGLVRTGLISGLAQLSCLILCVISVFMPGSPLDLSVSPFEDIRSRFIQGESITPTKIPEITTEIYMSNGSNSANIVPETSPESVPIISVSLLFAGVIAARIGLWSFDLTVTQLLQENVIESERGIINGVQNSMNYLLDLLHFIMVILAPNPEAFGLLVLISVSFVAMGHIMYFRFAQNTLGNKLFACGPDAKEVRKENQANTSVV
# Target: T1, human ferroportin (SLC40A1) fused in …
# Assay: cell-based or functional assay
Potency EC50 [nM],Potency EC50 (nM),Binder
15,–,Isovaleryl-DTHFPCIKFEPRSKKWVCK-NH2 (not fully specified (bridges); cysteine pairing not given here) [Compound 214]
–,> 1000,{Palmitoyl-PEG3′}-DTHFPCIKFGPRSKGWVCK-NH2 (cysteine pairing not given here) [Compound 217]
–,> 1000,Palmitoyl-DTHFPCIKFGPRSKGWVCK-NH2 (cysteine pairing not given here) [Compound 216]
> 300,–,H-DTHFPCIKFGPRSK([PEG3′-Isovaleryl])GWVCK-NH2 (cysteine pairing not given here) [Compound 212]
–,> 1000,H-DTHFPCIKFGPRSKGWVCK-NH2 (cysteine pairing not given here) [Compound 215]
233,–,H-DTHFPCIKFGPRSKGWVCK([PEG3′-Isovaleryl])-NH2 (cysteine pairing not given here) [Compound 213]

# Second part, the binder before the results:
Binder,Potency EC50 [nM],Potency EC50 (nM)
H-DTHFPCIK([PEG3′-Isovaleryl])FGPRSKGWVCK-NH2 (cysteine pairing not given here) [Compound 209],342,–
Isovaleryl-DTHFPCIKFGPK([PEG3′-Palmitoyl])SKGWVCK-NH2 (cysteine pairing not given here) [Compound 201],4,–
H-DTHFPCIKFGPK([PEG3′-Isovaleryl])SKGWVCK-NH2 (cysteine pairing not given here) [Compound 211],> 300,–
H-DTHFPCIK(Isovaleryl)FGPRSKGWVCK-NH2 (cysteine pairing not given here) [Compound 204],> 300,–
Isovaleryl-DTHFPICIFGPRSKGWVC-NH2 (not fully specified (bridges); cysteine pairing not given here) [Compound 2],5,–
DTHFPCIKFKPRSKGWVCK (N-terminal isovaleric acid; PEG3-Palm on side chain of Lys 10; C-terminal amide) [Compound 200],6,–
Isovaleryl-DTHFPCIKFGPRSKGWVCK([PEG3′-Palmitoyl])-NH2 (cysteine pairing not given here) [Compound 203],4,–
DTHFPCIKFKPRSKGWVCK (PEG3-IVA on side chain of Lys 10; C-terminal amide) [Compound 210],457,–
[Ida]TH[Dip][β3hP]ICIFGPRSKGWVCM-NH2 (disulfide 7-18 (inferred)) [Compound 5],17,–
Isovaleryl-DTHFPCIK([PEG3′-Palmitoyl])FGPRSKGWVCK-NH2 (cysteine pairing not given here) [Compound 199],7,–
Isovaleryl-DTHFPCIKFGPRSK([PEG3′-Palmitoyl])GWVCK-NH2 (cysteine pairing not given here) [Compound 202],3,–
DTHFPCIKFKPRSKGWVCK (not fully specified; IVA on side chain of Lys 10; C-terminal amide) [Compound 205],> 300,–
